Experimental data reported in patent US20240041978A1, “LA PROTEIN AS A NOVEL REGULATOR OF OSTEOCLASTOGENESIS” (The U.S.A., as Represented by the Secretary, Department of …, priority 2021, published 2024).
“Also recorded” adds a separate entry of the source. Peptide text beside a SMILES is read from it. * marks the point of attachment. Cbz = O=C(OCc1ccccc1)*; CH2F = FC*

Tests used:
[1] = test system: human monocyte-derived osteoclasts; test: Osteoclast fusion assay (number of fusion events, fluorescence microscopy); assay type: cell-based; settings: for osteoclast multinucleation / fusion: screen of La 188-375 peptide library, control no addition; for formation of multinucleated syncytia (osteoclast fusion): recombinant protein ~40 nM added end of day 2 post-RANKL, overnight
Procedure: Osteoclasts: Elutriated monocytes from healthy donors were obtained. Cells were plated at 2.9×10^5 per cm^2 in 35 mm dishes with polymer coverslip bottoms (Ibidi #81156) for imaging or 35 mm or 10 cm dishes for biochemical experiments in complete media [α-MEM supplemented with 10% Fetal Bovine Serum (FBS) and penicillin-streptomycin-L-glutamine (Gibco Invitrogene #12571063; #26140079 and #10378016, respectively)]. Monocytes were differentiated to M2 macrophages in the presence of 100 ng/ml M-CSF for 6 days and then differentiated with 100 ng/ml M-CSF and 100 ng/ml RANKL for 3 days unless indicated otherwise. RAW 264.7 cells (ATCC, Manassas, VA, #TIB-71) were maintained in DMEM supplemented with 10% FBS to a maximum of 8 passages. RAW 264.7 cells were differentiated to osteoclasts in the presence of 100 ng/ml murine RANKL for 5 days. To separate unfused mononucleated and fused, multinucleated RAW 264.7 cells into separate fractions, advantage was taken of the much stronger adherence of multinucleated cells to culture dish plastic. After washing in PBS, mixed RAW cultures (following RANKL differentiation) were left in Ca^2+ and Mg^2+ free PBS for 10 minutes at room temperature. Culture dishes were then tapped on the lab bench and a large portion of unfused, mononucleated RAW cells were released, and these released cells were collected via centrifugation. This process was repeated 2-4 times until dishes were left with a population of primarily fused, multinucleated syncytia. Mononucleated and multinucleated cell fractions were then processed for biochemical or imaging experiments as described below.
Constructs & Recombinant proteins & Transfection: Recombinant La 1-408, 1-375, 1-375 Q20A_Y24A_D33I, 1-187 and 188-375 were amplified with primers designed with overlapping sequences and inserted between NdeI/HindIII in the V78 pET28A E. coli expression vector, adding to each a N-terminal 6×his affinity tag. La 1-408 was expressed as a recombinant protein in E. coli and purified using IMAC columns by SD Biosciences (San Diego, CA). The remaining constructs were transformed into BL2 (DE3) chemically competent E. coli (Thermo Fisher Scientific) and protein expression was induced with IPTG. Cells were lysed with Bugbuster (Sigma), and 6×his-La proteins were affinity purified using HisPur Cobalt Spin columns (Thermo Fisher Scientific), each according to the manufacturer's instructions. Endotoxin contaminates were depleted from affinity purified 6×his-La proteins using Pierce high-capacity endotoxin removal columns (Thermo Fisher Scientific), according to the manufacturer's instructions. Proteins were then sterile filtered, aliquoted and kept at −80 C.
Plasmids were introduced into primary osteoclasts at day 2 of RANKL stimulation via jetPRIME (Polyplus Transfection). FLAG-La 1-408, FLAG-La 1-375 and FLAG-La 1-375 Q20A_Y24A_D33I plasmids were a gift of the Maraia Lab (NICHD). Briefly, SSB (UniProt P05455) was inserted between HindIII and BamHI the pFLAG-CMV2 vector (Sigma). “Uncleavable” La was produced by taking the FLAG-La 1-408 plasmid and making two point mutations at amino acids D371A and D374A, abrogating the caspase cleavage sites at the C-terminal region of the protein (Emory Integrated Genomics Core). siRNA were introduced into primary osteoclasts after 1 day of RANKL stimulation via Lipofectamine RNAiMAX (Thermo Fisher Scientific). Non-targeted (Cat #4390843) and SSB-targeted (Cat #4392420_ID:s13469) siRNA were introduced at a concentration of 5 ng/ml (Silencer Select, Ambion).
Fusion Assays: Osteoclast fusion in the culture systems was evaluated by fluorescence microscopy (Verma et al., J Biol Chem 293, 254-270, doi:10.1074/jbc.M117.809681 (2018)). Briefly, cells were fixed with 4% paraformaldehyde at timepoints of interest, permeabilized with 0.1% TRITON™ X-100 and blocked with 5% FBS. Cells were then stained with phallodin-ALEXAFLURO®488 and Hoechst to label cells' actin cytoskeleton and nuclei, respectively. […]

[2] = test system: production of LMW La in human osteoclasts; test: La cleavage and localization in differentiating osteoclasts with caspase inhibitor (Western blot, immunofluorescence); assay type: cell-based; settings: for production of LMW (cleaved) La: Western blot, differentiating human osteoclasts, Day 3-4 post-RANKL
Procedure: To identify the functional form of La associated with osteoclastogenesis, the relationship was determined between the appearance of LMW La and fusion between osteoclasts. During apoptotic progression human La is cleaved by caspases at […], removing La's NLS (Rutjes et al., Cell Death Differ 6, 976-986, doi:10.1038/sj.cdd.4400571 (1999); Ayukawa et al., J Biol Chem 275, 34465-34470, doi:10.1074/jbc.M003673200 (2000)).
Biochemical approaches: Cells were lysed on ice via pulse sonication and rotated end over end at 4° C. for 45 minutes in the presence of protease inhibitors (cOmplete, Sigma, #118361700010). Steady-state protein levels were evaluated via SDS-PAGE followed by immunoblotting. Bulk proteins were evaluated via SDS-PAGE followed by silver stain (SilverQuest, Thermo Fisher Scientific). Bands of interest were cut from silver stained gels, destained and evaluated by liquid chromatography coupled with tandem mass spectrometry (Proteomics Core, NHLBI). The selective enrichment of cytosolic vs membrane associated protein fractions was carried out using MEM-PER™ Plus Membrane Protein Extraction Kit (Thermo Fisher Scientific, catalogue #89842) according to the manufacturer's instructions.
Fluorescence Microscopy Imaging: In the immunofluorescence experiments the cells were washed with PBS and fixed with warm freshly prepared 4% formaldehyde in PBS (Sigma, F1268) at 37° C. The cells were washed three times with PBS. To permeabilize the cells, they were incubated for 5 min in 0.1% TRITON™ X100 in PBS. The cells were again washed three times with PBS and placed into PBS with 10% FBS, for 10 min at the room temperature to suppress non-specific binding. Then the cells were incubated with primary antibodies for 1 hour in PBS with 10% FBS. […]

[3] = target: T1, Anx A5 on PS containing liposomes (Homo sapiens, UniProt P08758); test: Liposome binding assay
T1 sequence (P08758 1-320): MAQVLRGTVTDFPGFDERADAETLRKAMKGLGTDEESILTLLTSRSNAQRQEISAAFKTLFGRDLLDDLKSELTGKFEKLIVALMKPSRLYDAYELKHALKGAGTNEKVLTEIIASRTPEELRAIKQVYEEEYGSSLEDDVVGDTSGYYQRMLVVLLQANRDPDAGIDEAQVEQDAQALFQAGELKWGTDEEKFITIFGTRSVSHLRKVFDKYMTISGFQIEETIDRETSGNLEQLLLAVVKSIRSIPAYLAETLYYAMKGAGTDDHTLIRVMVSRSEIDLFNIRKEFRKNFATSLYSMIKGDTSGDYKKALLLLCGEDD
Source text: Anx A5 binds to PS containing membranes in a Ca^2+-dependent manner. Recombinant La was introduced alone or along with recombinant Anx A5 to PS containing liposomes and pelleted liposomes by centrifugation to evaluate whether La was enriched with liposomes or in supernatant (FIG. 12C).
Liposome binding assay: Multilamellar liposomes were formed from pure PC or 9:1 (w/w) mixture of PC and PS. Both lipid compositions were supplemented with 0.5 mol % of lissamine rhodamine phosphatidylethanolamine. To prepare liposomes, lipid stock in benzene/methanol (95:5) was frozen in liquid nitrogen and freeze-dried overnight using SPEEDVAC™ (Savant). Dried lipid was resuspended in aqueous buffer (100 mM NaCl, 10 mM Hepes, pH 7.0) at 1 mM total lipid concentration and vortexed. Proteins and CaCl2 were added to the liposomes and the mixtures were incubated on ice for 30 minutes. To pellet, liposomes were centrifugated at 15,000 g for 20 minutes to pellet, based on rhodamine fluorescence ˜95% of liposomes. Centrifugated samples were then fractionated into a top, liposome-depleted fraction and a bottom fraction containing liposomes and liposome-bound proteins. Fractions were then solubilized via addition of Laemmli buffer (Bio Rad) and separated via SDS-PAGE, as described above. Recombinant La and recombinant Anx A5 were detected via their n-terminal 6×His tag via α-6×His antibody (Abcam) and signals for soluble vs liposome bound protein fractions were evaluated via densitometry. Data were presented as a percentage of protein signal bound to liposomes where: […]

Q: Which “ability of osteoclasts to form multinucleated syncytia” value ([1]; pan caspase inhibitor vs vehicle, Day 3 post-RANKL) does the source give for `COC(=O)C[C@H](NC(=O)[C@H](C)NC(=O)[C@@H](NC(=O)OCc1ccccc1)C(C)C)C(=O)CF` [z-VAD, z-VAD-fmk] (Cbz-Val-Ala-Asp(OMe)-CH2F) here?
A: The value was “significantly perturbed”.

Q: What about the “production of LMW (cleaved) La” value [2] of the same molecule?
A: The value was “blocked”.

Q: What about the “production of LMW (cleaved) La” value ([2]; listed as z-VAD-fmk) of the same molecule?
A: The value was “block the production of cleaved La”.

Q: And the “localization of FL La” value ([2]; α-FL La immunofluorescence, Day 3)?
A: Its value is “premature retention of FL La within the nuclei”.

Q: With “AKLRAKQEQEAKQKLEEDAEMKSLEEKIGC (inhibitory La peptide) [Peptide 2]” as the molecule, how does the “osteoclast multinucleation / fusion” value [1] read?
A: The value was “inhibit fusion and the formation of multinucleated osteoclasts; also recorded: specifically inhibit”.

Q: With “Anx A5: recombinant annexin A5, PS-binding peripheral membrane protein [reference compound]” as the molecule, how does the pelleting with liposomes ([3]; PS containing liposomes, La with Anx A5, Ca^2+) read?
A: The pelleting with liposomes was “pelleted with liposomes”.

Q: And the pelleting with liposomes ([3]; liposomes lacking PS)?
A: Its pelleting with liposomes is “neither La nor Anx A5 pelleted”.

Q: How did the “osteoclast multinucleation / fusion” value [1] turn out when “GEVEKEALKKIIEDQQESLNKWKSKGRRFK (inhibitory La peptide) [Peptide 9]” was run?
A: Its value is “inhibit fusion and the formation of multinucleated osteoclasts; also recorded: specifically inhibit”.

B1: La 1-187: recombinant N-terminal half of La 1-375 (protein, UniProt P05455 1-187, looked up, fragment)
chain: MAENGDNEKMAALEAKICHQIEYYFGDFNLPRDKFLKEQIKLDEGWVPLEIMIKFNRLNRLTTDFNVIVEALSKSKAELMEISEDKTKIRRSPSKPLPEVTDEYKNDVKNRSVYIKGFPTDATLDDIKEWLEDKGQVLNIQMRRTLHKAFKGSIFVVFDSIESAKKFVETPGQKYKETDLLILFKDD
Q: B1 was tested. Which “formation of multinucleated syncytia (osteoclast fusion)” value (“formation of multinucleated syncytia” below) [1] did it give?
A: The value was “no effect”.

B2: La 188-375: recombinant amino acids 188-375 of human La (protein, listed as Homo sapiens)
chain: YFAKKNEERKQNKVEAKLRAKQEQEAKQKLEEDAEMKSLEEKIGCLLKFSGDLDDQTCREDLHILFSNHGEIKWIDFVRGAKEGIILFKEKAKEALGKAKDANNGNLQLRNKEVTWEVLEGEVEKEALKKIIEDQQESLNKWKSKGRRFKGKGKGNKAAQPGSGKGKVQFQGKKTKFASDDEHDEHDE
Q: How did the “formation of multinucleated syncytia” value [1] turn out when B2 was run?
A: The value was “greatly promoted”.

Q: And the “osteoclast multinucleation / fusion” value [1]?
A: Its value is “promoted fusion”.

B3: La 1-408: recombinant full-length human La protein, N-terminal 6×his tag (protein, listed as Homo sapiens)
chain: MAENGDNEKMAALEAKICHQIEYYFGDFNLPRDKFLKEQIKLDEGWVPLEIMIKFNRLNRLTTDFNVIVEALSKSKAELMEISEDKTKIRRSPSKPLPEVTDEYKNDVKNRSVYIKGFPTDATLDDIKEWLEDKGQVLNIQMRRTLHKAFKGSIFVVFDSIESAKKFVETPGQKYKETDLLILFKDDYFAKKNEERKQNKVEAKLRAKQEQEAKQKLEEDAEMKSLEEKIGCLLKFSGDLDDQTCREDLHILFSNHGEIKWIDFVRGAKEGIILFKEKAKEALGKAKDANNGNLQLRNKEVTWEVLEGEVEKEALKKIIEDQQESLNKWKSKGRRFKGKGKGNKAAQPGSGKGKVQFQGKKTKFASDDEHDEHDENGATGPVKRAREETDKEEPASKQQKTENGAGDQ
modifications: N-terminal 6xHis tag
notes: recombinant full-length human La protein, N-terminal 6×his tag
Q: Which “formation of multinucleated syncytia” value [1] does the source give for B3 here?
A: Its value is “significantly promoted”.

B4: heat-inactivated La 1-408: recombinant heat-inactivated La 1-408 (protein, UniProt P05455 1-408, looked up)
chain: MAENGDNEKMAALEAKICHQIEYYFGDFNLPRDKFLKEQIKLDEGWVPLEIMIKFNRLNRLTTDFNVIVEALSKSKAELMEISEDKTKIRRSPSKPLPEVTDEYKNDVKNRSVYIKGFPTDATLDDIKEWLEDKGQVLNIQMRRTLHKAFKGSIFVVFDSIESAKKFVETPGQKYKETDLLILFKDDYFAKKNEERKQNKVEAKLRAKQEQEAKQKLEEDAEMKSLEEKIGCLLKFSGDLDDQTCREDLHILFSNHGEIKWIDFVRGAKEGIILFKEKAKEALGKAKDANNGNLQLRNKEVTWEVLEGEVEKEALKKIIEDQQESLNKWKSKGRRFKGKGKGNKAAQPGSGKGKVQFQGKKTKFASDDEHDEHDENGATGPVKRAREETDKEEPASKQQKTENGAGDQ
modifications: full-length heat-inactivated
Q: With B4 as the molecule, how does the “formation of multinucleated syncytia” value [1] read?
A: The value was “not observed”.
